± gives the uncertainty stated by the source.
Experiment: self-splicing fitness, log relative to wild type (ln ratio); higher = more splicing; Tetrahymena group I intron in knt gene, E. coli kanamycin selection, DiMSum; sequences stand for … in CUCUCU…GGAGGGAAAAGUUAUCAGGCAUGCACCUGGUAGCUAGUCUUUAAACCAAUAGAUUGCAUCGGUUUAAAAGGCAAGACCGUCAAAUUGCGGGAAAGGGGUCAACAGCCGUUCAGUACCAAGUCUCAGGGGAAACUUUGAGAUGGCCUUGCAAAGGGUAUGGUAAUAAGCUGACGGACAUGGUCCUAACCACGCAGCCAAGUCCUAAGUCAACAGAUCUUCUGUUGAUAUGGAUGCAGUUCACAGACUAAAUGUCGGUCGGGGAAGAUGUAUUCUUCUCAUAAGAUAUAGUCGGACCUCUCCUUAAUGGGAGCUAGCGGAUGAAGUGAUGCAACACUGGAGCCGCUGGGAACUAAUUUGUAUGCGAAAGUAUAUUGAUUAGUUUUGGAGUACUCGUGGUCG
Summary of the method: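 DiMSum derived fitness as the error-weighted combination of fold changes across replicates, kanamycin versus no kanamycin, normalised to wild type. E. coli BL21(DE3) held the library, which randomised all eight P1ex-region intron nucleotides within the knt kanamycin-resistance gene on pET-22b(+). Six replicate transformations grew overnight at 37°C or 30°C on LB agar with or without 25 μg/mL kanamycin, also containing 100 μg/mL carbenicillin, 50 μM IPTG and 0.2% rhamnose, and pooled colonies were amplicon-sequenced on an Illumina HiSeq 2500.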

| Sequence | self-splicing fitness (ln) (30 °C) | self-splicing fitness (ln) (37 °C) |
| --- | --- | --- |
| CGAAAGCAAUAUUACGUGGA | -3.24 ± 0.13 | -1.66 ± 0.096 |
| CGAAAGCAAUAUUACGUUAU | -3.68 ± 0.31 | -3.5 ± 0.29 |
| CGACAGCAAUAUUACGAACU | -1.16 ± 0.13 | -0.845 ± 0.15 |
| CGACAGCAAUAUUACGAGUA | -3.58 ± 0.18 | -1.52 ± 0.12 |
| CGACAGCAAUAUUACGAUAU | -2.96 ± 0.14 | -2.84 ± 0.12 |
| CGACAGCAAUAUUACGCAAG | -1.28 ± 0.081 | -0.83 ± 0.097 |
| CGACAGCAAUAUUACGCAGU | -3.75 ± 0.22 | -2.05 ± 0.23 |
| CGACAGCAAUAUUACGCCCU | -1.46 ± 0.1 | -0.191 ± 0.11 |
| CGACAGCAAUAUUACGCCGU | -2.62 ± 0.35 | -1.55 ± 0.33 |
| CGACAGCAAUAUUACGCUAU | -3.71 ± 0.23 | -2.04 ± 0.14 |
| CGACAGCAAUAUUACGCUUA | -2.2 ± 0.14 | -1.78 ± 0.12 |
| CGACAGCAAUAUUACGCUUC | – | -3.09 ± 0.43 |
| CGACAGCAAUAUUACGCUUG | -1.8 ± 0.098 | -1.22 ± 0.12 |
| CGACAGCAAUAUUACGGAAG | -2.1 ± 0.068 | -1.24 ± 0.083 |
| CGACAGCAAUAUUACGGACG | -2.24 ± 0.11 | -1.33 ± 0.15 |
| CGACAGCAAUAUUACGGCAU | -3.08 ± 0.21 | -2.16 ± 0.25 |
| CGACAGCAAUAUUACGGCGA | -1.65 ± 0.14 | -0.523 ± 0.13 |
| CGACAGCAAUAUUACGGCGC | -3.37 ± 0.24 | -0.977 ± 0.15 |
| CGACAGCAAUAUUACGGCGG | -0.174 ± 0.078 | 0.335 ± 0.11 |
| CGACAGCAAUAUUACGGCGU | -3.22 ± 0.088 | -1.59 ± 0.074 |
| CGACAGCAAUAUUACGGGCG | -1.71 ± 0.17 | -1.81 ± 0.19 |
| CGACAGCAAUAUUACGGGCU | -4.16 ± 0.2 | -2.53 ± 0.15 |
| CGACAGCAAUAUUACGGUAG | -1.47 ± 0.069 | -0.946 ± 0.069 |
| CGACAGCAAUAUUACGGUCA | -0.168 ± 0.083 | 0.276 ± 0.1 |
| CGACAGCAAUAUUACGGUCG | -3.33 ± 0.14 | -2.48 ± 0.15 |

| Sequence | self-splicing fitness (ln) (30 °C) | self-splicing fitness (ln) (37 °C) |
| --- | --- | --- |
| CGACAGCAAUAUUACGUGUC | -3.39 ± 0.13 | -2.01 ± 0.12 |
| CGAGAGCAAUAUUACGACAU | -3.964 ± 0.034 | -2.84 ± 0.046 |
| CGAGAGCAAUAUUACGACUC | -2.03 ± 0.42 | -0.968 ± 0.39 |
| CGAGAGCAAUAUUACGAUAC | -3.49 ± 0.42 | -1.05 ± 0.26 |
| CGAGAGCAAUAUUACGAUCA | -2.63 ± 0.38 | -1.75 ± 0.38 |
| CGAGAGCAAUAUUACGAUCU | -2.45 ± 0.42 | – |
| CGAGAGCAAUAUUACGCUAA | -2.68 ± 0.33 | – |
| CGAGAGCAAUAUUACGGAUC | -3.76 ± 0.38 | -1.51 ± 0.28 |
| CGAGAGCAAUAUUACGGCAU | -3.2 ± 0.42 | -2.15 ± 0.46 |
| CGAGAGCAAUAUUACGGCCU | -2.61 ± 0.39 | -2.63 ± 0.44 |
| CGAGAGCAAUAUUACGGUAA | -1.51 ± 0.25 | -2.55 ± 0.28 |
| CGAGAGCAAUAUUACGGUUA | -3.13 ± 0.43 | -2.79 ± 0.49 |
| CGAGAGCAAUAUUACGUACU | – | -0.953 ± 0.3 |
| CGAGAGCAAUAUUACGUAGU | -2.78 ± 0.3 | -1.7 ± 0.27 |
| CGAGAGCAAUAUUACGUAUG | -3.68 ± 0.29 | -1.49 ± 0.21 |
| CGAGAGCAAUAUUACGUCUA | -3.15 ± 0.36 | – |
| CGAGAGCAAUAUUACGUGAC | -2.77 ± 0.2 | -2.01 ± 0.29 |
| CGAGAGCAAUAUUACGUGGA | -3.7 ± 0.26 | -2.89 ± 0.23 |
| CGAGAGCAAUAUUACGUGUG | -2.97 ± 0.12 | -2.5 ± 0.15 |
| CGAUAGCAAUAUUACGAAGG | -0.374 ± 0.11 | -0.55 ± 0.17 |
| CGAUAGCAAUAUUACGAAUU | -4.06 ± 0.3 | -2.41 ± 0.21 |
| CGAUAGCAAUAUUACGACAA | -3.4 ± 0.34 | -2.35 ± 0.27 |
| CGAUAGCAAUAUUACGACUC | -1.15 ± 0.15 | -1.38 ± 0.17 |
| CGAUAGCAAUAUUACGAGAG | -2.05 ± 0.2 | -2.66 ± 0.26 |
